Reference: paper PMC11638070

Target: mitochondrial heat shock protein 60 V72I (mtHsp60^V72I) (human) (UniProt P10809)

Substance “mtHsp10 (from UniProt P61604 1-102) (natural protein)” has a steady-state ATPase activity of mtHsp60^V72I (500 nM monomer) against mtHsp10 (twofold series from 10 µM monomer); ~21 pmol ATP per min without mtHsp10 of 31 pmol/min.
